Laboratory results taken from PMC10397247.
Values belong to the binder of their own block, whether it stands above or below them.

Assays:
4H4073-bH = molecular target: T1, 4H4073-bH; experiment: two-hybrid library CCNG1;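 also: natural log of median RNA to DNA barcode read ratio; higher means stronger binding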
T1 chain: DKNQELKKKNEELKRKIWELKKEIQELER

4H457-bH = molecular target: T2, 4H457-bH; experiment: two-hybrid library CCNG1;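 also: natural log of median RNA to DNA barcode read ratio; higher means stronger binding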
T2 chain: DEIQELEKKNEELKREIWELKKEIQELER

4H575-bH = molecular target: T3, 4H575-bH; experiment: two-hybrid library CCNG1;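 also: natural log of median RNA to DNA barcode read ratio; higher means stronger binding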
T3 chain: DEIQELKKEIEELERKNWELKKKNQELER

4H683-bH = molecular target: T4, 4H683-bH; experiment: two-hybrid library CCNG1;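 also: natural log of median RNA to DNA barcode read ratio; higher means stronger binding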
T4 chain: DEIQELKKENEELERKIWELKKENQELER

4H754-bH = molecular target: T5, 4H754-bH; experiment: two-hybrid library CCNG1;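 also: natural log of median RNA to DNA barcode read ratio; higher means stronger binding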
T5 chain: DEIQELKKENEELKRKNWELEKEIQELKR

4H780-bH = molecular target: T6, 4H780-bH; experiment: two-hybrid library CCNG1;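 also: natural log of median RNA to DNA barcode read ratio; higher means stronger binding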
T6 chain: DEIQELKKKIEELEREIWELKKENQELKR

4H797-bH = molecular target: T7, 4H797-bH; experiment: two-hybrid library CCNG1
T7 chain: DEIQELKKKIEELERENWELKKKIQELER

4H850-bA = molecular target: T8, 4H850-bA; experiment: two-hybrid library CCNG1
T8 chain: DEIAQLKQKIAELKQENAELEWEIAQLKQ

4H855-bH = molecular target: T9, 4H855-bH; experiment: two-hybrid library CCNG1
T9 chain: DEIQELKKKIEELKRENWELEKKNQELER

4H953-bH = molecular target: T10, 4H953-bH; experiment: two-hybrid library CCNG1
T10 chain: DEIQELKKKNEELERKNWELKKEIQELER

4H968-bH = molecular target: T11, 4H968-bH; experiment: two-hybrid library CCNG1
T11 chain: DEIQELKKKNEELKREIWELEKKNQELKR

4H3974-bA = molecular target: T12, 4H3974-bA; experiment: two-hybrid library CCNG1
T12 chain: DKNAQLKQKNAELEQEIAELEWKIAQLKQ

4H570-bA = molecular target: T13, 4H570-bA; experiment: two-hybrid library CCNG1
T13 chain: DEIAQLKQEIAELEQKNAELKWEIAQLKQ

4H584-bA = molecular target: T14, 4H584-bA; experiment: two-hybrid library CCNG1
T14 chain: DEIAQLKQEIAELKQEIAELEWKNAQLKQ

4H619-bA = molecular target: T15, 4H619-bA; experiment: two-hybrid library CCNG1
T15 chain: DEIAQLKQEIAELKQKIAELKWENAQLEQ

4H906-bA = molecular target: T16, 4H906-bA; experiment: two-hybrid library CCNG1
T16 chain: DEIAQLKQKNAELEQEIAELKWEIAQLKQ

4H584-bN = molecular target: T17, 4H584-bN; experiment: two-hybrid library CCNG1
T17 chain: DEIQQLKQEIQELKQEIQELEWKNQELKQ

4H619-bN = molecular target: T18, 4H619-bN; experiment: two-hybrid library CCNG1
T18 chain: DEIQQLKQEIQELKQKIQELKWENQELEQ

4H850-bN = molecular target: T19, 4H850-bN; experiment: two-hybrid library CCNG1
T19 chain: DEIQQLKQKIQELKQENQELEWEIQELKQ

4H906-bN = molecular target: T20, 4H906-bN; experiment: two-hybrid library CCNG1
T20 chain: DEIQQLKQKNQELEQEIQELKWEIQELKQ

O8-bP = molecular target: T21, O8-bP; experiment: two-hybrid library CCNG1
T21 chain: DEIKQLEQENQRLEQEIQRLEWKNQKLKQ

O9-bP = molecular target: T22, O9-bP; experiment: two-hybrid library CCNG1
T22 chain: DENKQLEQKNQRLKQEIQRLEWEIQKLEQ

4H486-AA = molecular target: T23, 4H486-AA; experiment: two-hybrid library CCmax
T23 chain: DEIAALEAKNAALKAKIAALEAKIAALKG

4H535-AA = molecular target: T24, 4H535-AA; experiment: two-hybrid library CCmax; conditions: mean of both orientations
T24 chain: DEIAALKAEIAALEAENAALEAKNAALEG

4H58-AA = molecular target: T25, 4H58-AA; experiment: two-hybrid library CCmax; conditions: mean of both orientations
T25 chain: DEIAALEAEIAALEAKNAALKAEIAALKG

4H895-AA = molecular target: T26, 4H895-AA; experiment: two-hybrid library CCmax; conditions: mean of both orientations
T26 chain: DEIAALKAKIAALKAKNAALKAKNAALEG

4H_APH = molecular target: T27, 4H_APH; experiment: two-hybrid library CCmax
T27 chain: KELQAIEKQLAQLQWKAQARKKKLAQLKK

4H_BCR = molecular target: T28, 4H_BCR; experiment: two-hybrid library CCmax; conditions: mean of both orientations
T28 chain: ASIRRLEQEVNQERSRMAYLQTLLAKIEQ

4H_GCN4 = experiment: two-hybrid library CCmax
GCN2_T = experiment: two-hybrid library CCmax
4H3974-bN = molecular target: T29, 4H3974-bN; experiment: two-hybrid library CCNG1
T29 chain: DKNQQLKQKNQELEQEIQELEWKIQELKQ

4H570-bN = molecular target: T30, 4H570-bN; experiment: two-hybrid library CCNG1
T30 chain: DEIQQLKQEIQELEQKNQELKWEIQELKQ

Sequence of 4H_GCN4 (chain, as listed by the source): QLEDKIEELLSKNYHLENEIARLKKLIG

interaction score (4H4073-bH): -0.834
interaction score (4H457-bH): -0.419
interaction score (4H575-bH): -1.03
interaction score (4H683-bH): -0.249
interaction score (4H754-bH): -1.38
interaction score (4H780-bH): -0.609
interaction score (4H797-bH): -0.554
interaction score (4H850-bA): -2.46
interaction score (4H855-bH): -1.09
interaction score (4H953-bH): -1.39
interaction score (4H968-bH): -1.06
Binder: DKNQELKKKNEELKRKIWELKKEIQELER [4H4073-bH]

interaction score (O8-bP): -1.1
interaction score (O9-bP): -0.57
Binder: DEIKQLEQENQRLEQEIQRLEWKNQKLKQ [O8-bP]

The remaining lines, values behind:

Binder: DKNAQLKQKNAELEQEIAELEWKIAQLKQ [4H3974-bA]
interaction score (4H3974-bA): -0.293
interaction score (4H570-bA): -0.136
interaction score (4H584-bA): -1.38
interaction score (4H619-bA): -0.503
interaction score (4H850-bA): -1.84
interaction score (4H906-bA): -1.37

Binder: DEIQQLKQEIQELKQEIQELEWKNQELKQ [4H584-bN]
interaction score (4H584-bN): 0.406
interaction score (4H619-bN): 1.21
interaction score (4H850-bN): 0.196
interaction score (4H906-bN): -0.43

Binder: DEIAALEAKNAALKAKIAALEAKIAALKG [4H486-AA]
interaction score (4H486-AA): 0.819
interaction score (4H535-AA): -1.16
interaction score (4H58-AA): -0.289
interaction score (4H895-AA): -1.84
interaction score (4H_APH): -1.97
interaction score (4H_BCR): -1.34
interaction score (4H_GCN4): -1.06
interaction score (GCN2_T): -0.249

Binder: DKNQQLKQKNQELEQEIQELEWKIQELKQ [4H3974-bN]
interaction score (4H3974-bN): -0.444
interaction score (4H570-bN): -1.69
interaction score (4H584-bN): -0.919
interaction score (4H619-bN): -0.273
interaction score (4H850-bN): 0.5
interaction score (4H906-bN): -0.832
